Test results: US20220251174A1 (published 2022)

B1: 23-H7 Fab (Fab, V domains shown)
VH: QVQLVQSGAEVKLPGASMKVSCKASGYTFSTYYMHWVRQAPGQGPEWMGVIDPSGGTTSYAQKFHDRIAMTRDTSTSTAYLELSSLRSEDMAVYYCARGGFADAVDYWGQGTLVTVSS
VL: NFMLTQPHSVSGSPGKTVTISCTRNSGSIAGNYVQWYQQRPGSAPTTVIYEDNQRPSGVPDRFSGSIDSSSNSASLTISGLKTEDEADYYCQSYDASHLHVIFGGGTKVTVL
B2: 22-E7 (full-length human IgG1) (antibody, V domains shown)
VH: QVQLVESGGGVVQPGTSLRLSCAASGFTFNNYPMFWVRQAPGKGLEWLALISYDGNHKVYADSVKGRFTISRDNAKNTLYLQMHSLRAEDTALYYCASDLSGAEDSWGQGTLVTVSS
VL: QSALTQPASVSGSPGQSITISCTGTSSDVGGYNYVSWYQQHPGKAPKLLIYEVSNRPSGVSNRFSGSKSGNTASLTISGLQAEDEADYYCSSYTSSSTWVFGGGTKLTVL

Experiments:
[1] = target: SARS-CoV-2 Spike RBD (tagless) (UniProt P0DTC2 319-541); test: BLI
SARS-CoV-2 Spike () = test: BLI

Binder | IC50 [1] | Kd (SARS-CoV-2 Spike ())
B1 | 4.6 nM | –
B2 | – | 248 nM
